In the experiment the target is HLA-A*02:01 (Homo sapiens, UniProt P04439, D140Y/D185E/D98H/E176V/E277Q/G131W/G231S/I119V/I121R/I166T/I218V/L300P/L318F/N151K/N90K/P208A/P217A/Q86G/Q94H/R138H/R169H/T345S). As to the kind of experiment: MHC binding assay (UV-ligand exchange, beta2m ELISA). The following applies: binding to HLA-A*02:01 ranged by peptide exchange yield (UV-ligand exchange, β2m ELISA). The source says: Candidate peptides for T cell based therapies according to the present invention were further tested for their MHC binding capacity (affinity). The individual peptide-MHC complexes were produced by UV-ligand exchange, where a UV-sensitive peptide is cleaved upon UV-irradiation, and exchanged with the peptide of interest as analyzed. Only peptide candidates that can effectively bind and stabilize the peptide-receptive MHC molecules prevent dissociation of the MHC complexes. To determine the yield of the exchange reaction, an ELISA was performed based on the detection of the light chain (β2m) of stabilized MHC complexes. The assay was performed as generally described in Rodenko et al. (Rodenko et al., 2006).
96 well MAXISorp plates (NUNC) were coated over night with 2 ug/ml streptavidin in PBS at room temperature, washed 4× and blocked for 1 h at 37° C. in 2% BSA containing blocking buffer. […] Peptide-MHC monomers of the UV-exchange reaction were diluted 100 fold in blocking buffer. Samples were incubated for 1 h at 37° C., washed four times, incubated with 2 ug/ml HRP conjugated anti-β2m for 1 h at 37° C., washed again and detected with TMB solution that is stopped with […]. Absorption was measured at 450 nm. Candidate peptides that show a high exchange yield (preferably higher than 50%, most preferred higher than 75%) are generally preferred for a generation and production of antibodies or fragments thereof, and/or T cell receptors or fragments thereof, as they show sufficient avidity to the MHC molecules and prevent dissociation of the MHC complexes.
(In general: ELISA stands for enzyme-linked immunosorbent assay.)
For “89 (YILPTETIYV; listed as Homo sapiens) [compound 89]”, the Peptide exchange result is ““++++” (≥75% = ++++)”.
“595 (VLLSIYPRV; listed as Homo sapiens) [compound 595]”: the Peptide exchange entry was ““+++” (≥50 = +++)”.
As for “237 (ALLEASGTLLL; listed as Homo sapiens) [compound 237]”, the Peptide exchange entry is reported as ““++++” (≥75% = ++++)”.
To “481 (GLIEDYEALL; listed as Homo sapiens) [compound 481]” belongs ““+++” (≥50 = +++)”; to “152 (ILFEDIFDV; listed as Homo sapiens) [compound 152]”, ““+++” (≥50 = +++)”.
For “171 (LLLPLQILL; listed as Homo sapiens) [compound 171]”, the Peptide exchange entry is given as ““+++” (≥50 = +++)”.
Under “502 (RLLAQVPGL; listed as Homo sapiens) [compound 502]” stands ““+++” (≥50 = +++)”; under “234 (ALMEDTGRQML; listed as Homo sapiens) [compound 234]”, ““++” (≥20% = ++)”.
Turning to “434 (KVSNSGITRV; listed as Homo sapiens) [compound 434]”, the Peptide exchange entry is ““++” (≥20% = ++)”.
To “93 (LLQAIKLYL; listed as Homo sapiens) [compound 93]” belongs ““++” (≥20% = ++)”; to “440 (ALADGVTMQV; listed as Homo sapiens) [compound 440]”, ““++” (≥20% = ++)”; to “590 (SLIEKLWQT; listed as Homo sapiens) [compound 590]”, ““++” (≥20% = ++)”.
With “55 (SLLDLETLSL; listed as Homo sapiens) [compound 55]”, the Peptide exchange entry is recorded as ““++++” (≥75% = ++++)”.
As to “550 (FLYDEIEAEVNL; listed as Homo sapiens) [compound 550]”, the Peptide exchange entry was ““+++” (≥50 = +++)”.
For “106 (LLYDAVHIVSV; listed as Homo sapiens) [compound 106]”, the Peptide exchange result was ““+++” (≥50 = +++)”.
As for “165 (SLLDEIRAV; listed as Homo sapiens) [compound 165]”, the Peptide exchange result is given as ““+++” (≥50 = +++)”.
For “446 (QLIPALAKV; listed as Homo sapiens) [compound 446]”, the Peptide exchange entry is given as ““+++” (≥50 = +++)”.
Under “559 (VTVPPGPSL; listed as Homo sapiens) [compound 559]” stands ““++” (≥20% = ++)”; under “448 (NLLETKLQL; listed as Homo sapiens) [compound 448]”, ““+++” (≥50 = +++)”; under “96 (YIFTDNPAAV; listed as Homo sapiens) [compound 96]”, ““+++” (≥50 = +++)”.
With “176 (YLMEGSYNKVFL; listed as Homo sapiens) [compound 176]”, the Peptide exchange entry is on record as ““++” (≥20% = ++)”.
Under “300 (ALLGQTFSL; listed as Homo sapiens) [compound 300]” stands ““+++” (≥50 = +++)”; under “42 (VLLQKIVSA; listed as Homo sapiens) [compound 42]”, ““+++” (≥50 = +++)”; under “305 (SIANFSEFYV; listed as Homo sapiens) [compound 305]”, ““++++” (≥75% = ++++)”.
Under “310 (FLVDTPLARA; listed as Homo sapiens) [compound 310]” stands ““++++” (≥75% = ++++)”; under “357 (SMHDLVLQV; listed as Homo sapiens) [compound 357]”, ““+++” (≥50 = +++)”.
On to “49 (YLPAVFEEV; listed as Homo sapiens) [compound 49]”, for which the Peptide exchange result is ““+++” (≥50 = +++)”.
Under “433 (AMLNEPWAV; listed as Homo sapiens) [compound 433]” stands ““+++” (≥50 = +++)”.
In the case of “236 (GLLEAKVSL; listed as Homo sapiens) [compound 236]”, the Peptide exchange entry is reported as ““+++” (≥50 = +++)”.
As for “503 (SLNHFTHSV; listed as Homo sapiens) [compound 503]”, the Peptide exchange result is recorded as ““+++” (≥50 = +++)”.
As to “613 (RLLPPGAVVAV; listed as Homo sapiens) [compound 613]”, the Peptide exchange result is ““+++” (≥50 = +++)”.
To “210 (LLLNAVLTV; listed as Homo sapiens) [compound 210]” belongs ““++” (≥20% = ++)”; to “21 (VLDELDMEL; listed as Homo sapiens) [compound 21]”, ““++” (≥20% = ++)”.
To “179 (KVLNELYTV; listed as Homo sapiens) [compound 179]” belongs ““+++” (≥50 = +++)”.
To “207 (GLTSTNAEV; listed as Homo sapiens) [compound 207]” belongs ““++” (≥20% = ++)”.
With “568 (TLYDIAHTPGV; listed as Homo sapiens) [compound 568]”, the Peptide exchange result is on record as ““++++” (≥75% = ++++)”.
On to “574 (YLLQEPPRTV; listed as Homo sapiens) [compound 574]”, for which the Peptide exchange result is given as ““++” (≥20% = ++)”.
In the case of “328 (ALNDQVFEI; listed as Homo sapiens) [compound 328]”, the Peptide exchange entry was ““+++” (≥50 = +++)”.
To “20 (RMIEYFIDV; listed as Homo sapiens) [compound 20]” belongs ““+++” (≥50 = +++)”; to “408 (VLDDSIYLV; listed as Homo sapiens) [compound 408]”, ““++” (≥20% = ++)”; to “145 (FLATSGTLAGI; listed as Homo sapiens) [compound 145]”, ““++” (≥20% = ++)”.
In the case of “485 (NVPDSFNEV; listed as Homo sapiens) [compound 485]”, the Peptide exchange result is ““+++” (≥50 = +++)”.
For “206 (VLQEGKLQKLAQL; listed as Homo sapiens) [compound 206]”, the Peptide exchange entry is reported as ““+++” (≥50 = +++)”.
Consider “322 (TLMTSLPAL; listed as Homo sapiens) [compound 322]”, for which the Peptide exchange result was ““+++” (≥50 = +++)”.
To “175 (YLFENISQL; listed as Homo sapiens) [compound 175]” belongs ““+++” (≥50 = +++)”.
In the case of “588 (SLLPLSHLV; listed as Homo sapiens) [compound 588]”, the Peptide exchange entry was ““+++” (≥50 = +++)”.
Consider “476 (ALMERTGYSMV; listed as Homo sapiens) [compound 476]”, for which the Peptide exchange entry is ““+++” (≥50 = +++)”.
Under “429 (GLVNDLARV; listed as Homo sapiens) [compound 429]” stands ““++” (≥20% = ++)”.
Under “256 (FLPPEHTIVYI; listed as Homo sapiens) [compound 256]” stands ““+++” (≥50 = +++)”.
Turning to “177 (YLLPEEYTSTL; listed as Homo sapiens) [compound 177]”, the Peptide exchange result was ““++++” (≥75% = ++++)”.
Regarding “246 (LLWEVVSQL; listed as Homo sapiens) [compound 246]”, the Peptide exchange result is on record as ““+++” (≥50 = +++)”.
As for “107 (FLQPVDDTQHL; listed as Homo sapiens) [compound 107]”, the Peptide exchange result is ““+++” (≥50 = +++)”.
Regarding “239 (AAFAGKLLSV; listed as Homo sapiens) [compound 239]”, the Peptide exchange result is listed as ““+++” (≥50 = +++)”.
As for “39 (SVAPNLPAV; listed as Homo sapiens) [compound 39]”, the Peptide exchange entry is recorded as ““+++” (≥50 = +++)”.
To “332 (YLISELEAA; listed as Homo sapiens) [compound 332]” belongs ““+++” (≥50 = +++)”.
Regarding “451 (LLLLDTVTMQV; listed as Homo sapiens) [compound 451]”, the Peptide exchange entry is on record as ““++” (≥20% = ++)”.
On to “512 (SLSEIVPCL; listed as Homo sapiens) [compound 512]”, for which the Peptide exchange entry is given as ““+++” (≥50 = +++)”.
With “157 (SLNDEVPEV; listed as Homo sapiens) [compound 157]”, the Peptide exchange result is ““++” (≥20% = ++)”.
Under “614 (LLLPDQPPYHL; listed as Homo sapiens) [compound 614]” stands ““+++” (≥50 = +++)”.
To “280 (VLPDPEVLEAV; listed as Homo sapiens) [compound 280]” belongs ““+++” (≥50 = +++)”; to “221 (ALYEEGLLL; listed as Homo sapiens) [compound 221]”, ““++” (≥20% = ++)”; to “115 (AIAGAGILYGV; listed as Homo sapiens) [compound 115]”, ““++” (≥20% = ++)”.
Under “506 (KLLGKVETA; listed as Homo sapiens) [compound 506]” stands ““+++” (≥50 = +++)”; under “596 (ALLDQTKTLAESAL; listed as Homo sapiens) [compound 596]”, ““+++” (≥50 = +++)”.
Consider “560 (ALWDIETGQQTTT; listed as Homo sapiens) [compound 560]”, for which the Peptide exchange entry was ““+++” (≥50 = +++)”.

The record behind these values is patent US10738094B2, “Peptides and combination of peptides for use in immunotherapy against ovarian cancer and other cancers” (immatics biotechnologies GmbH, priority 2015, dated 2020).
